Source: the Human Domainome abundance scans (Beltran et al. 2025)
± gives the uncertainty stated by the source.

B1: KAT8 regulatory NSL complex subunit 2, residues 28 to 91; numbered along this chain, Q9H9L4 (parent)
chain: CAFTHRPCSHPRLEGQEFCIKHILEDKNAPFKQCSYISTKNGKRCPNAAPKPEKKDGVSFCAEH

Variants of: B1
Assay: abundance fitness (aPCA) (normalised: wild type 0, dead -1); higher = more abundant; growth selection in yeast, the domain comes from the species named
Settings: Homo sapiens

| Variant | abundance fitness |
| --- | --- |
| CAFTHRPCSHPRLEGTEFCIKHILEDKNAPFKQCSYISTKNGKRCPNAAPKPEKKDGVSFCAEH | -0.15 ± 0.074 |
| CAFTHRPCSHPRLEGCEFCIKHILEDKNAPFKQCSYISTKNGKRCPNAAPKPEKKDGVSFCAEH | -0.198 ± 0.065 |
| CAFTHRPCSHPRLEGLEFCIKHILEDKNAPFKQCSYISTKNGKRCPNAAPKPEKKDGVSFCAEH | -0.054 ± 0.053 |
| CAFTHRPCSHPRLEGMEFCIKHILEDKNAPFKQCSYISTKNGKRCPNAAPKPEKKDGVSFCAEH | -0.146 ± 0.11 |
| CAFTHRPCSHPRLEGSEFCIKHILEDKNAPFKQCSYISTKNGKRCPNAAPKPEKKDGVSFCAEH | -0.091 ± 0.054 |
| CAFTHRPCSHPRLNGQEFCIKHILEDKNAPFKQCSYISTKNGKRCPNAAPKPEKKDGVSFCAEH | -0.334 ± 0.18 |
| CAFTHRPCSHPRLFGQEFCIKHILEDKNAPFKQCSYISTKNGKRCPNAAPKPEKKDGVSFCAEH | -0.252 ± 0.19 |
| CAFTHRPCSHPRLQGQEFCIKHILEDKNAPFKQCSYISTKNGKRCPNAAPKPEKKDGVSFCAEH | -0.155 ± 0.2 |
| CAFTHRPCSHPRLVGQEFCIKHILEDKNAPFKQCSYISTKNGKRCPNAAPKPEKKDGVSFCAEH | -0.098 ± 0.054 |
| CAFTHRPCSHPRLHGQEFCIKHILEDKNAPFKQCSYISTKNGKRCPNAAPKPEKKDGVSFCAEH | -0.262 ± 0.16 |
| CAFTHRPCSHPRLDGQEFCIKHILEDKNAPFKQCSYISTKNGKRCPNAAPKPEKKDGVSFCAEH | -0.152 ± 0.13 |
| CAFTHRPCSHPRLRGQEFCIKHILEDKNAPFKQCSYISTKNGKRCPNAAPKPEKKDGVSFCAEH | -0.258 ± 0.052 |
| CAFTHRPCSHPRLAGQEFCIKHILEDKNAPFKQCSYISTKNGKRCPNAAPKPEKKDGVSFCAEH | -0.107 ± 0.086 |
| CAFTHRPCSHPRLIGQEFCIKHILEDKNAPFKQCSYISTKNGKRCPNAAPKPEKKDGVSFCAEH | -0.219 ± 0.1 |
| CAFTHRPCSHPRLCGQEFCIKHILEDKNAPFKQCSYISTKNGKRCPNAAPKPEKKDGVSFCAEH | -0.168 ± 0.053 |
| CAFTHRPCSHPRLLGQEFCIKHILEDKNAPFKQCSYISTKNGKRCPNAAPKPEKKDGVSFCAEH | -0.12 ± 0.05 |
| CAFTHRPCSHPRLPGQEFCIKHILEDKNAPFKQCSYISTKNGKRCPNAAPKPEKKDGVSFCAEH | -0.141 ± 0.067 |
| CAFTHRPCSHPRLMGQEFCIKHILEDKNAPFKQCSYISTKNGKRCPNAAPKPEKKDGVSFCAEH | -0.034 ± 0.12 |
| CAFTHRPCSHPRLSGQEFCIKHILEDKNAPFKQCSYISTKNGKRCPNAAPKPEKKDGVSFCAEH | -0.147 ± 0.059 |
| CAFTHRPCSHPRLTGQEFCIKHILEDKNAPFKQCSYISTKNGKRCPNAAPKPEKKDGVSFCAEH | -0.129 ± 0.051 |
| CAFTHRPCSHPRLWGQEFCIKHILEDKNAPFKQCSYISTKNGKRCPNAAPKPEKKDGVSFCAEH | -0.396 ± 0.088 |

| Variant | abundance fitness |
| --- | --- |
| CAFTHRPCSHWRLEGQEFCIKHILEDKNAPFKQCSYISTKNGKRCPNAAPKPEKKDGVSFCAEH | -0.555 ± 0.079 |
| CAFTHRPCSHSRLEGQEFCIKHILEDKNAPFKQCSYISTKNGKRCPNAAPKPEKKDGVSFCAEH | -0.162 ± 0.067 |
| CAFTHRPCSHVRLEGQEFCIKHILEDKNAPFKQCSYISTKNGKRCPNAAPKPEKKDGVSFCAEH | -0.197 ± 0.053 |
| CAFTHRPCSHPPLEGQEFCIKHILEDKNAPFKQCSYISTKNGKRCPNAAPKPEKKDGVSFCAEH | -0.147 ± 0.077 |
| CAFTHRPCSHPQLEGQEFCIKHILEDKNAPFKQCSYISTKNGKRCPNAAPKPEKKDGVSFCAEH | -0.561 ± 0.25 |
| CAFTHRPCSHPWLEGQEFCIKHILEDKNAPFKQCSYISTKNGKRCPNAAPKPEKKDGVSFCAEH | -1.22 ± 0.19 |
| CAFTHRPCSHPTLEGQEFCIKHILEDKNAPFKQCSYISTKNGKRCPNAAPKPEKKDGVSFCAEH | -0.103 ± 0.067 |
| CAFTHRPCSHPMLEGQEFCIKHILEDKNAPFKQCSYISTKNGKRCPNAAPKPEKKDGVSFCAEH | -0.47 ± 0.18 |
| CAFTHRPCSHPSLEGQEFCIKHILEDKNAPFKQCSYISTKNGKRCPNAAPKPEKKDGVSFCAEH | -0.106 ± 0.057 |
| CAFTHRPCSHPILEGQEFCIKHILEDKNAPFKQCSYISTKNGKRCPNAAPKPEKKDGVSFCAEH | -0.234 ± 0.096 |
| CAFTHRPCSHPNLEGQEFCIKHILEDKNAPFKQCSYISTKNGKRCPNAAPKPEKKDGVSFCAEH | -0.279 ± 0.084 |
| CAFTHRPCSHPKLEGQEFCIKHILEDKNAPFKQCSYISTKNGKRCPNAAPKPEKKDGVSFCAEH | -0.325 ± 0.2 |
| CAFTHRPCSHPDLEGQEFCIKHILEDKNAPFKQCSYISTKNGKRCPNAAPKPEKKDGVSFCAEH | -0.93 ± 0.22 |
| CAFTHRPCSHPFLEGQEFCIKHILEDKNAPFKQCSYISTKNGKRCPNAAPKPEKKDGVSFCAEH | -0.77 ± 0.066 |
| CAFTHRPCSHPHLEGQEFCIKHILEDKNAPFKQCSYISTKNGKRCPNAAPKPEKKDGVSFCAEH | -0.308 ± 0.066 |
| CAFTHRPCSHPELEGQEFCIKHILEDKNAPFKQCSYISTKNGKRCPNAAPKPEKKDGVSFCAEH | -0.674 ± 0.13 |
| CAFTHRPCSHPALEGQEFCIKHILEDKNAPFKQCSYISTKNGKRCPNAAPKPEKKDGVSFCAEH | -0.055 ± 0.077 |
| CAFTHRPCSHPYLEGQEFCIKHILEDKNAPFKQCSYISTKNGKRCPNAAPKPEKKDGVSFCAEH | -0.787 ± 0.082 |
| CAFTHRPCSHPVLEGQEFCIKHILEDKNAPFKQCSYISTKNGKRCPNAAPKPEKKDGVSFCAEH | -0.066 ± 0.08 |
| CAFTHRPCSHPGLEGQEFCIKHILEDKNAPFKQCSYISTKNGKRCPNAAPKPEKKDGVSFCAEH | -0.652 ± 0.074 |
| CAFTHRPCSHPLLEGQEFCIKHILEDKNAPFKQCSYISTKNGKRCPNAAPKPEKKDGVSFCAEH | -0.27 ± 0.06 |
